Measurements reported in patent US20180155451A1 (published 2018).
Where two headings read alike, the source gives them in different places.

T1: FcgRIIb (human, UniProt P31994 43-217)
T1 construct: extracellular domain; also called FcγRIIb; not shown: His tag attached to the C terminus
T1 sequence (looked up): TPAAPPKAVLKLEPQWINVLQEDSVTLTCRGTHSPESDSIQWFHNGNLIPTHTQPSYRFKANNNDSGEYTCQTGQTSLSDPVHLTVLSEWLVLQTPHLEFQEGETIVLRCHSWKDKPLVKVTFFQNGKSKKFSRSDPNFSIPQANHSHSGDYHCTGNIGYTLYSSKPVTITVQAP

T2: FcgRIIa R (human, UniProt P12318 34-217)
T2 construct: extracellular domain; also called FcγRIIa R; FcγRIIa type R; not shown: His tag attached to the C terminus
T2 sequence (looked up): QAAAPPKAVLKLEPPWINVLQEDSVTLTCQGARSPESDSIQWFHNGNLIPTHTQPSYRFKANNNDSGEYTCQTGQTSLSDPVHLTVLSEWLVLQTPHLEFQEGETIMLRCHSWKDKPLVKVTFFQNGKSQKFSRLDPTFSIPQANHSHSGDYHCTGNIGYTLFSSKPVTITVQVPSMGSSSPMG

T3: FcgRIIa H (human, UniProt P12318 34-217)
T3 construct: extracellular domain; also called FcγRIIa H; FcγRIIa type H; not shown: His tag attached to the C terminus
T3 sequence (looked up): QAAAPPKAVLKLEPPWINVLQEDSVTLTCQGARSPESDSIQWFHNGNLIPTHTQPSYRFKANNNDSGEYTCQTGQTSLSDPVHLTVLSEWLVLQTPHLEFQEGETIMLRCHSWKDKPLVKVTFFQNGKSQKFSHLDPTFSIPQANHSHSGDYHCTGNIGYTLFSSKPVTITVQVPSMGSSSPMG


Assays:
Assay in all cases: SPR (Biacore); KD of H240-Kn061/H240-Hl071/L73-k0 divided by KD of the variant
FcgRIIIa V [1] = biological target: T4, FcgRIIIa V (human, UniProt P08637 17-208)
T4 construct: extracellular domain; also called FcγRIIIa V; not shown: His tag attached to the C terminus

FcgRIIb [2] = biological target: T1, FcgRIIb
FcgRIIa R = biological target: T2, FcgRIIa R
FcgRIIIa F [3] = biological target: T5, FcgRIIIa F (human, UniProt P08637 17-208)
T5 construct: extracellular domain; also called FcγRIIIa F; 3aF; not shown: His tag attached to the C terminus

FcgRIIa H = biological target: T3, FcgRIIa H
FcgRIIIa V [4] = biological target: T4, FcgRIIIa V; remark: listed apart in the source
Experimental: (§1) The antibodies were assessed for the binding to each FcgR. […] The resultant value was defined as relative KD, and used as an assessment indicator.
(§2) Analysis of interaction between obj ective antibody and the FcγR was carried out using Biacore T100 (GE Healthcare), Biacore T200, Biacore A100, and Biacore 4000. HBS-EP+ (GE Healthcare) was used as the running buffer, and the measurement temperature was set to 25° C. Chips produced by immobilizing the antigen peptide by the amine coupling method to a Series S sensor Chip CM5 (GE Healthcare), chips produced by allowing preliminarily biotinylated antigen peptides to interact with and immobilize onto a Series S Sensor Chip SA (certified) (GE Healthcare), chips produced by immobilizing Protein L (ACTIGEN, BioVision) to Series S Sencor Chip CM5 (GE Healthcare), or chips produced by immobilizing Protein A/G (Thermo Scientific) to Series S Sencor Chip CM5 (GE Healthcare) were used. Antibodies of interest were captured onto these chips, and allowed to interact to each FcγR diluted with running buffer.

FcgRIIb [5] = biological target: T1, FcgRIIb; remark: listed apart in the source
Experimental: as §1, §2

FcgRIIIa F [6] = biological target: T5, FcgRIIIa F; remark: listed apart in the source
Experimental: as §1, §2

T4 sequence (P08637 17-208 F176V limits assumed): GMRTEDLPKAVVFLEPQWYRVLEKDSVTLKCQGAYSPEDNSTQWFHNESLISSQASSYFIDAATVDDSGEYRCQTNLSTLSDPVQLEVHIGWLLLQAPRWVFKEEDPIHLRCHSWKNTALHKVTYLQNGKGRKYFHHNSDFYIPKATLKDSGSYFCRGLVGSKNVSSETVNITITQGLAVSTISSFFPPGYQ
T5 sequence (P08637 17-208): as the sequence (P08637 17-208 F176V limits assumed) above, with V160F counted along it

Relative KD (FcgRIIIa V [1]) | Relative KD (FcgRIIb [2]) | Relative KD (FcgRIIa R) | Relative KD (FcgRIIIa F [3]) | Relative KD (FcgRIIa H) | Relative KD (FcgRIIIa V [4]) | Relative KD (FcgRIIb [5]) | Relative KD (FcgRIIIa F [6]) | Binder
1.3 | 0.2 | 0.5 | 1.2 | 0.5 | 1.3 | 0.2 | 1.2 | H240-Kn061 (Y235A)/H240-Hl071/L73-k0 (antibody, human IgG1, kappa) heavy 1: QDQLVQSGAEVKKPGASVKVSCKASGFNIKDTYIQWVRQAPGQGLEWMGRIDPLRKQTKYREKFEGRVTITADTSTNTAYMELSSLRSEDTAVYYCVRSGREFDYWGQGTLVTVSSASTKGPSVFPLAPSSKSTSGGTAALGCLVKDYFPEPVTVSWNSGALTSGVHTFPAVLQSSGLYSLSSVVTVPSSSLGTQTYICNVNHKPSNTKVDKKVEPKSCDKTHTCPPCPAPEYAWGPSVFLFPPKPKDTLMISRTPEVTCVVVDVSDEDPEVKFNWYVDGVEVHNAKTKPREEQYNATYRVVSVLTVLHQDWLNGKEYKCKVSNKALPAPIEKTISKAKGQPREPQVCTLPPSRDELTKNQVSLWCLVKGFYPSDIAVEWESNGQPENNYKTTPPVLDSDGSFFLYSKLTVDKSRWQQGNVFSCSVMHEALHNHYTQKSLSLSP heavy 2: QDQLVQSGAEVKKPGASVKVSCKASGFNIKDTYIQWVRQAPGQGLEWMGRIDPLRKQTKYREKFEGRVTITADTSTNTAYMELSSLRSEDTAVYYCVRSGREFDYWGQGTLVTVSSASTKGPSVFPLAPSSKSTSGGTAALGCLVKDYFPEPVTVSWNSGALTSGVHTFPAVLQSSGLYSLSSVVTVPSSSLGTQTYICNVNHKPSNTKVDKKVEPKSCDKTHTCPPCPAPELLGGPSVFLFPPKPKDTLMISRTPEVTCVVVDVSHEDPEVKFNWYVDGVEVHNAKTKPREEQYNSTYRVVSVLTVLHQDWLNGKEYKCKVSNDALPMPIEETISKAKGQPREPQVYTLPPSRCELTKNQVSLSCAVKGFYPSDIAVEWESNGQPENNYKTTPPVLDSDGSFFLVSKLTVDKSRWQQGNVFSCSVMHEALHNHYTQKSLSLSP light: DIQMTQSPSSLSASVGDRVTITCRASQDIHKYIAWYQQKPGQAPRLLIQYTSTLQPGVPSRFSGSGSGTDYTFTISSLQPEDIATYYCLQYEQLRTFGGGTKVEIKRTVAAPSVFIFPPSDEQLKSGTASVVCLLNNFYPREAKVQWKVDNALQSGNSQESVTEQDSKDSTYSLSSTLTLSKADYEKHKVYACEVTHQGLSSPVTKSFNRGEC
1.6 | 0.2 | 0.7 | 1.3 | 0.4 | 1.6 | 0.2 | 1.3 | H240-Kn061 (Y235I)/H240-Hl071/L73-k0 (antibody, human IgG1, kappa) heavy 1: QDQLVQSGAEVKKPGASVKVSCKASGFNIKDTYIQWVRQAPGQGLEWMGRIDPLRKQTKYREKFEGRVTITADTSTNTAYMELSSLRSEDTAVYYCVRSGREFDYWGQGTLVTVSSASTKGPSVFPLAPSSKSTSGGTAALGCLVKDYFPEPVTVSWNSGALTSGVHTFPAVLQSSGLYSLSSVVTVPSSSLGTQTYICNVNHKPSNTKVDKKVEPKSCDKTHTCPPCPAPEYIWGPSVFLFPPKPKDTLMISRTPEVTCVVVDVSDEDPEVKFNWYVDGVEVHNAKTKPREEQYNATYRVVSVLTVLHQDWLNGKEYKCKVSNKALPAPIEKTISKAKGQPREPQVCTLPPSRDELTKNQVSLWCLVKGFYPSDIAVEWESNGQPENNYKTTPPVLDSDGSFFLYSKLTVDKSRWQQGNVFSCSVMHEALHNHYTQKSLSLSP heavy 2: QDQLVQSGAEVKKPGASVKVSCKASGFNIKDTYIQWVRQAPGQGLEWMGRIDPLRKQTKYREKFEGRVTITADTSTNTAYMELSSLRSEDTAVYYCVRSGREFDYWGQGTLVTVSSASTKGPSVFPLAPSSKSTSGGTAALGCLVKDYFPEPVTVSWNSGALTSGVHTFPAVLQSSGLYSLSSVVTVPSSSLGTQTYICNVNHKPSNTKVDKKVEPKSCDKTHTCPPCPAPELLGGPSVFLFPPKPKDTLMISRTPEVTCVVVDVSHEDPEVKFNWYVDGVEVHNAKTKPREEQYNSTYRVVSVLTVLHQDWLNGKEYKCKVSNDALPMPIEETISKAKGQPREPQVYTLPPSRCELTKNQVSLSCAVKGFYPSDIAVEWESNGQPENNYKTTPPVLDSDGSFFLVSKLTVDKSRWQQGNVFSCSVMHEALHNHYTQKSLSLSP light: DIQMTQSPSSLSASVGDRVTITCRASQDIHKYIAWYQQKPGQAPRLLIQYTSTLQPGVPSRFSGSGSGTDYTFTISSLQPEDIATYYCLQYEQLRTFGGGTKVEIKRTVAAPSVFIFPPSDEQLKSGTASVVCLLNNFYPREAKVQWKVDNALQSGNSQESVTEQDSKDSTYSLSSTLTLSKADYEKHKVYACEVTHQGLSSPVTKSFNRGEC
1.6 | 0.5 | 1.4 | 1.9 | 0.7 | 1.6 | 0.5 | 1.9 | H240-Kn061 (Y234E)/H240-Hl071/L73-k0 (antibody, human IgG1, kappa) heavy 1: QDQLVQSGAEVKKPGASVKVSCKASGFNIKDTYIQWVRQAPGQGLEWMGRIDPLRKQTKYREKFEGRVTITADTSTNTAYMELSSLRSEDTAVYYCVRSGREFDYWGQGTLVTVSSASTKGPSVFPLAPSSKSTSGGTAALGCLVKDYFPEPVTVSWNSGALTSGVHTFPAVLQSSGLYSLSSVVTVPSSSLGTQTYICNVNHKPSNTKVDKKVEPKSCDKTHTCPPCPAPEEYWGPSVFLFPPKPKDTLMISRTPEVTCVVVDVSDEDPEVKFNWYVDGVEVHNAKTKPREEQYNATYRVVSVLTVLHQDWLNGKEYKCKVSNKALPAPIEKTISKAKGQPREPQVCTLPPSRDELTKNQVSLWCLVKGFYPSDIAVEWESNGQPENNYKTTPPVLDSDGSFFLYSKLTVDKSRWQQGNVFSCSVMHEALHNHYTQKSLSLSP heavy 2: QDQLVQSGAEVKKPGASVKVSCKASGFNIKDTYIQWVRQAPGQGLEWMGRIDPLRKQTKYREKFEGRVTITADTSTNTAYMELSSLRSEDTAVYYCVRSGREFDYWGQGTLVTVSSASTKGPSVFPLAPSSKSTSGGTAALGCLVKDYFPEPVTVSWNSGALTSGVHTFPAVLQSSGLYSLSSVVTVPSSSLGTQTYICNVNHKPSNTKVDKKVEPKSCDKTHTCPPCPAPELLGGPSVFLFPPKPKDTLMISRTPEVTCVVVDVSHEDPEVKFNWYVDGVEVHNAKTKPREEQYNSTYRVVSVLTVLHQDWLNGKEYKCKVSNDALPMPIEETISKAKGQPREPQVYTLPPSRCELTKNQVSLSCAVKGFYPSDIAVEWESNGQPENNYKTTPPVLDSDGSFFLVSKLTVDKSRWQQGNVFSCSVMHEALHNHYTQKSLSLSP light: DIQMTQSPSSLSASVGDRVTITCRASQDIHKYIAWYQQKPGQAPRLLIQYTSTLQPGVPSRFSGSGSGTDYTFTISSLQPEDIATYYCLQYEQLRTFGGGTKVEIKRTVAAPSVFIFPPSDEQLKSGTASVVCLLNNFYPREAKVQWKVDNALQSGNSQESVTEQDSKDSTYSLSSTLTLSKADYEKHKVYACEVTHQGLSSPVTKSFNRGEC
